Reference: paper doi:10.1101/2022.04.02.486817

Columns and labels:
AP2 α-appendage = AP2 α-appendage (UniProt P17427); assay: ITC
Cμ2 = Cμ2 (UniProt P84092); assay: ITC
GST-TGN38 = GST-TGN38 (UniProt P19814); assay: BLI
GST-TGN38, sequence (P19814 325-357): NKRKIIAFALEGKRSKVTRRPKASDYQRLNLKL

AP2 α-appendage, sequence (P17427 702-938): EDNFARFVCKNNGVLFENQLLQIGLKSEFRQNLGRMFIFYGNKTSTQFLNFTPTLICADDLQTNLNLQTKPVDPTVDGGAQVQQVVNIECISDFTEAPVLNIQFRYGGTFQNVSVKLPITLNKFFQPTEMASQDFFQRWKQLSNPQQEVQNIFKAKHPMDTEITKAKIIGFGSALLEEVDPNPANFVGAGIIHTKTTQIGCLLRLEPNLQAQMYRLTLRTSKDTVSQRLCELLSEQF
AP2:β2FCHO2-N3+C, sequence (P62743 whole entry, looked up, tested part not stated): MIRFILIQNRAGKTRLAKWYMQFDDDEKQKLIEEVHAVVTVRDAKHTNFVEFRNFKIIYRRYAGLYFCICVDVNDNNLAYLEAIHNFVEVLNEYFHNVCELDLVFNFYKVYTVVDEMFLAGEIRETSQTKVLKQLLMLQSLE
AP2:β2FCHO2-N3+C, sequence (P84092 whole entry, looked up, tested part not stated): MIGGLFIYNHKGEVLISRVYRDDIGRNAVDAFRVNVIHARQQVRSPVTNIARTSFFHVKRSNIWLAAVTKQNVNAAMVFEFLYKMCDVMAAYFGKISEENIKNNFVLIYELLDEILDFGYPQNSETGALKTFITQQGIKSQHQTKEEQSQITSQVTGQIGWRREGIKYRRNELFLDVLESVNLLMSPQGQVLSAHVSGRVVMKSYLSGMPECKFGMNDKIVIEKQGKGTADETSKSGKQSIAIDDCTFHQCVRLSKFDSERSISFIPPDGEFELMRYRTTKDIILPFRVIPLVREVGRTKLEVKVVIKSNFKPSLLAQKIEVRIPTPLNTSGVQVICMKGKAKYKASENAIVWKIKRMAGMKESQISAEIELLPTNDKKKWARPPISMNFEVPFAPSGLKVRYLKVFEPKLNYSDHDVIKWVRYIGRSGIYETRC
AP2:β2FCHO2-N3+C, sequence (P18484 whole entry, looked up, tested part not stated): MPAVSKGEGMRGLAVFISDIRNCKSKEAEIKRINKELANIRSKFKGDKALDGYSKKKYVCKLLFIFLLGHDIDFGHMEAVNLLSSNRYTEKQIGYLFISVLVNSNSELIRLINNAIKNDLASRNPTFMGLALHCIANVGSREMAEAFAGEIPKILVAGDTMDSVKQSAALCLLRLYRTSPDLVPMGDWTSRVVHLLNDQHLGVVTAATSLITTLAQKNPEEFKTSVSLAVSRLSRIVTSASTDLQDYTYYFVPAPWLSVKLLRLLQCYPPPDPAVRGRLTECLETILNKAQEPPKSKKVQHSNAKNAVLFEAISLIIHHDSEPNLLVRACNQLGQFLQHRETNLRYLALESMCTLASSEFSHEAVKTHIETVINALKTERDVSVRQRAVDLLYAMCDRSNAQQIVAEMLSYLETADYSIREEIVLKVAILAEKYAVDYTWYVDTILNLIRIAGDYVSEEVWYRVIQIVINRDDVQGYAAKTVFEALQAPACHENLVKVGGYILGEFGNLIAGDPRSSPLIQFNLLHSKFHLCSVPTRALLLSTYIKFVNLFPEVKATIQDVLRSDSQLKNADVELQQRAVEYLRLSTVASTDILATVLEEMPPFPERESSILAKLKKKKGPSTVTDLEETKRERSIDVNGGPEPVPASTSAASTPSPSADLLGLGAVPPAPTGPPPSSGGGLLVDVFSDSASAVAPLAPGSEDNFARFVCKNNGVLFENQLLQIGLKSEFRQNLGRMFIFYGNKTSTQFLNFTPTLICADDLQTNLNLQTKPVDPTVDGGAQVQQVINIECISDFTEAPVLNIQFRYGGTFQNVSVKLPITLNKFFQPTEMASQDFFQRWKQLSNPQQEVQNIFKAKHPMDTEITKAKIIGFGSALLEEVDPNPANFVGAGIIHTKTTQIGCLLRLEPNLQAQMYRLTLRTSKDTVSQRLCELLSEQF
Cμ2, sequence (P84092 158-435): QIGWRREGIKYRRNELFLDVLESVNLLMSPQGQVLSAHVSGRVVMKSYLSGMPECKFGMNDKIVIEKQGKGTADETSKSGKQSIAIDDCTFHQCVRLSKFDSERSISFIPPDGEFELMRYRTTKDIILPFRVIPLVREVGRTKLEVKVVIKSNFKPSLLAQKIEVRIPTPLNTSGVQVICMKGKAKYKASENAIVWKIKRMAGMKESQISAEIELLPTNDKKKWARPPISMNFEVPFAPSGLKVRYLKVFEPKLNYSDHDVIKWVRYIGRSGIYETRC

Kd (AP2 α-appendage) [µM] | Substance | other results
> 500 | FCHO1 C block PPtoGG (from UniProt O14526 427-448) (peptide) | –
> 500 | FCHO1 C block FGtoAA (from UniProt O14526 427-448) (peptide) | –

The remaining lines, values behind:

Substance | Kd (AP2 α-appendage) [µM] | other results
FCHO2 N1+N2 E320A+E321A+K326A (domain or fragment) | – | fold reduction of binding against the wild type (Cμ2): 5 fold
FCHO1 C block LEStoAAA (from UniProt O14526 427-448) (peptide) | > 500 | –
AP2:β2FCHO2-N3+C (from UniProt P18484 1-938; P84092 1-435; P62743 1-142) (complex) | – | fold tighter binding than AP2 core (GST-TGN38): 3 fold
